Measured values as given in PMC12025097, “Elucidation of Expression Patterns and Functional Properties of Archaerhodopsin Derived from Halorubrum sp. Ejinoor” (Biology, 2025).

Experiments:
BR = target: T1, BR (Halobacterium salinarum, UniProt P02945); experiment: HPLC of chromophore extracted from purified protein; assay type: binding; conditions: covalent; Schiff base to Lys216; dark- and light-adapted; 0.05% DDM, 10 mM HEPES, pH 7.5
T1 construct: gene bop; native BR from Hs by sucrose density gradient; text also mentions Ni-NTA purification and a vector-cloned BR from E. coli
T1 sequence (P02945 14-262): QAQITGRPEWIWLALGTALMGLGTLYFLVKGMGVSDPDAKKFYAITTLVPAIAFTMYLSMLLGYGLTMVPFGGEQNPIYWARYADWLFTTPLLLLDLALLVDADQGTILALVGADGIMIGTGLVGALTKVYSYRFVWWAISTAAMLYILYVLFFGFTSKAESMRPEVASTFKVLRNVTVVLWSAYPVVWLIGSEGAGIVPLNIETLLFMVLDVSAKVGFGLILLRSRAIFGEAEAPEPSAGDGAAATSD

Asp95 = Asp95 (UniProt position 95, YARYADWLFTT); experiment: UV-vis; conditions: not stated (six-component buffer said to keep ionic strength constant); citric acid/MES/HEPES/MOPS/CHES/CAPS, each 10 mM; retinal-bound, detergent-solubilised trimer; steady-state titration; light or dark adaptation state not stated
Asp85 = Asp85 (UniProt position 98, WARYADWLFTT); conditions: cited from earlier work
[1] = target: Bacteriorhodopsin (Halobacterium salinarum) (UniProt P02945); experiment: SEC; Superdex 200 10/300 GL, 25 °C, 10 mM HEPES pH 7.5, 100 mM NaCl, 0.05% DDM, 0.5 mL/min, detection at 280 and 560 nm; apparent mass from calibration standards, trimer deduced after allowing for bound DDM
[2] = target: Halorubrum sp. Ejinoor Archaerhodopsin (Halorubrum sp. Ejinoor); experiment: as above

With `CC1=C(/C=C/C(C)=C/C=C/C(C)=C\C=O)C(C)(C)CCC1` [13-cis retinal] the “HPLC of chromophore extracted from purified protein” value (BR) was “both HeAR and BR contain only two retinal chromophore isomers: All-trans and 13-cis”.
In the case of `CC1=C(/C=C/C(C)=C/C=C/C(C)=C/C=O)C(C)(C)CCC1` [All-trans retinal], the “HPLC of chromophore extracted from purified protein” value (BR) is reported as “both HeAR and BR contain only two retinal chromophore isomers: All-trans and 13-cis”.
“Archaerhodopsin HeAR (Halorubrum sp. Ejinoor)” gave a pKa (Asp95) of 3.5 ± 0.1.
In the case of “Bacteriorhodopsin (BR) (Halobacterium salinarum)”, the pKa (Asp85) is listed as roughly 2.6.
“Bacteriorhodopsin (from UniProt P02945 14-262) (natural protein)” gave a stoichiometry N [1] of 3.
“Halorubrum sp. Ejinoor Archaerhodopsin (natural protein)” showed a stoichiometry N [2] of 3.
